Experimental data: the supplement of paper PMC10126150
± gives the standard deviation of the averaged measurements.

Each sequence was assayed on ATP (assay: switch fluorescence ratio, 500 uM ATP over buffer (Cy3 cluster intensity, sum of 5 cycles each) (fold (ratio)); higher = stronger signal-on switching upon ATP binding; sequences stand for … in TCGTCGGCAGCGTCAGATGTGTATAAGAGACAGTTTTTTTTTTTTTTTTTTTTTTTTT…TC). Settings: aptamer strand: ATP DNA aptamer (quencher-CACCTGGGGGAGTATTGCGGAGGAAGG + anchor), 100 nM annealed; ATP concentration: 500 uM.
Summary of the method: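 Exposure to 500 uM ATP lasted 15 min at 22 °C before imaging, and a selection-buffer image was taken beforehand, for Cy3-labelled switching-strand clusters on a modified Illumina MiSeq flow-cell annealed to 100 nM quencher-labelled ATP aptamer. Five buffer/ATP cycles were run with NaOH stripping and re-annealing between them. The fluorescence ratio per cluster is summed target-cycle over summed buffer-cycle Cy3 intensity, averaged per switch-domain sequence. Clusters outside 100-1000 RFU were excluded.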
GGACGGAATG gave a switch fluorescence ratio of 0.955 ± 0.02.
In the case of GGGCGAGCCT, the switch fluorescence ratio is reported as 1.028 ± 0.008.
Sequence GGGAGAAAGG has a switch fluorescence ratio of 1.011 ± 0.0067.
TGGGGCGACG was tested, and the switch fluorescence ratio was 0.994 ± 0.034.
In the case of CTCCGAGATG, the switch fluorescence ratio is reported as 5.85 ± 0.59.
AAATGCAAAG was tested, and the switch fluorescence ratio was 0.991 ± 0.016.
With TGAACGGGGG the switch fluorescence ratio was 1.02 ± 0.049.
GGCTTTGTGG gave a switch fluorescence ratio of 0.992 ± 0.02.
ATACCATGGT showed a switch fluorescence ratio of 0.992 ± 0.053.
Work on TTAGTAGGTC yielded a switch fluorescence ratio of 0.992 ± 0.047.
With CGTGTACATC the switch fluorescence ratio was 1.01 ± 0.011.
For ACCGAGGCAT, the switch fluorescence ratio was 3.81 ± 1.5.
GCTTGGCTTG gave a switch fluorescence ratio of 1.02 ± 0.025.
TAAAGGTAGG gave a switch fluorescence ratio of 1.01 ± 0.041.
For TAGACGGGCT, the switch fluorescence ratio was 0.9797 ± 0.0025.
For TCCGGCCAGC, the switch fluorescence ratio was 1.28 ± 0.025.
TAAAACGCGG gave a switch fluorescence ratio of 1.07 ± 0.048.
TGAGTCAGTG showed a switch fluorescence ratio of 1.0116 ± 0.00046.
In the case of CTACGCCTGG, the switch fluorescence ratio is reported as 1.66 ± 0.044.
For TGAGTTTTTT, the switch fluorescence ratio was 0.982 ± 0.039.
In the case of GATTGTTCTC, the switch fluorescence ratio is reported as 0.981 ± 0.011.
TTTTAGTTAT showed a switch fluorescence ratio of 1.04 ± 0.037.
In the case of AAAAGTTACA, the switch fluorescence ratio is reported as 1.027 ± 0.0092.
With AGGGGTAGGT the switch fluorescence ratio was 0.982 ± 0.019.
In the case of CGGGGTCGTA, the switch fluorescence ratio is reported as 1 ± 0.047.
AGAGTACTCG gave a switch fluorescence ratio of 1.05 ± 0.0048.
GAGGTTCCCG gave a switch fluorescence ratio of 0.984 ± 0.051.
GGGGGTTATA gave a switch fluorescence ratio of 0.965 ± 0.016.
ATGCAGGCAC gave a switch fluorescence ratio of 1.03 ± 0.024.
AAGCTTACGG was tested, and the switch fluorescence ratio was 1.06 ± 0.056.
GTTTGAATTT was tested, and the switch fluorescence ratio was 0.989 ± 0.027.
CCTTTCGGGT gave a switch fluorescence ratio of 0.982 ± 0.039.
ATGGCAGGGC showed a switch fluorescence ratio of 1.01 ± 0.016.
For ACTCGGGTAG, the switch fluorescence ratio was 1.028 ± 0.0056.
In the case of GACATGGGTT, the switch fluorescence ratio is reported as 0.983 ± 0.015.
In the case of TATATGGTTG, the switch fluorescence ratio is reported as 0.9383 ± 0.0022.
CCCTTGCGGT was tested, and the switch fluorescence ratio was 1.03 ± 0.047.
Sequence CGGTGCTACT has a switch fluorescence ratio of 1.03 ± 0.063.
In the case of GGGCTGGGGA, the switch fluorescence ratio is reported as 1.01 ± 0.033.
Sequence TGGGAGGGTA has a switch fluorescence ratio of 0.982 ± 0.022.
Work on ACCGTAGCTT yielded a switch fluorescence ratio of 2.61 ± 0.14.
Sequence AACCCAAGGG has a switch fluorescence ratio of 1.09 ± 0.055.
Sequence TTGGTAATAG has a switch fluorescence ratio of 1.03 ± 0.015.
TGGTTGGAAG gave a switch fluorescence ratio of 0.987 ± 0.016.
For GGGTTGATAG, the switch fluorescence ratio was 1.01 ± 0.021.
Sequence CTAAGGGGTT has a switch fluorescence ratio of 0.991 ± 0.036.
TGGTGTGTAC showed a switch fluorescence ratio of 1.06 ± 0.076.
TAGGCTTTGG gave a switch fluorescence ratio of 0.97 ± 0.0099.
Work on GTTAGAGATA yielded a switch fluorescence ratio of 0.992 ± 0.015.
With TAAAGAAGGA the switch fluorescence ratio was 0.977 ± 0.042.
TAAAGATAGG was tested, and the switch fluorescence ratio was 1.026 ± 0.0036.
GGCGTGCCGA gave a switch fluorescence ratio of 1.011 ± 0.0053.
CGGTAGGATC showed a switch fluorescence ratio of 0.995 ± 0.03.
TTTTTTTCCG showed a switch fluorescence ratio of 1.012 ± 0.0081.
ATCCAGGTTG showed a switch fluorescence ratio of 1.68 ± 0.11.
TTTCGCGGGT gave a switch fluorescence ratio of 1.05 ± 0.067.
Work on ATTGGATATT yielded a switch fluorescence ratio of 1.02 ± 0.015.
In the case of TTAAAATGTA, the switch fluorescence ratio is reported as 0.992 ± 0.03.
With AAGTATATGA the switch fluorescence ratio was 1.004 ± 0.0083.
AATGTAGTTT was tested, and the switch fluorescence ratio was 0.993 ± 0.032.
With CAGAGTCTGG the switch fluorescence ratio was 1.04 ± 0.024.
GAGTCGGCGC was tested, and the switch fluorescence ratio was 0.983 ± 0.1.
Work on TTCGGTTTTT yielded a switch fluorescence ratio of 1.02 ± 0.011.
With GATTGTTTGT the switch fluorescence ratio was 1.03 ± 0.067.
With TGCCGTTCTT the switch fluorescence ratio was 1 ± 0.021.
Work on ATGTGTCTG yielded a switch fluorescence ratio of 0.987 ± 0.014.
With GATGCAAGTG the switch fluorescence ratio was 1.07 ± 0.033.
In the case of GTTGTATGTA, the switch fluorescence ratio is reported as 1 ± 0.049.
Work on CGTGGATGTT yielded a switch fluorescence ratio of 0.9831 ± 0.0034.
For CTCGTTGAGG, the switch fluorescence ratio was 0.979 ± 0.032.
In the case of GTGGATTATC, the switch fluorescence ratio is reported as 1.01 ± 0.036.
With TTAGCCAGCT the switch fluorescence ratio was 0.96986 ± 0.00044.
Sequence GGGTTCAAAG has a switch fluorescence ratio of 0.9818 ± 0.006.
For AAAAACAAAA, the switch fluorescence ratio was 1.04 ± 0.065.
ATGTTGTAAG gave a switch fluorescence ratio of 1.01 ± 0.039.
CGTGGGGTGT gave a switch fluorescence ratio of 1.01 ± 0.039.
With ACCATTACAC the switch fluorescence ratio was 1.24 ± 0.024.
Sequence TAGGGGGAGT has a switch fluorescence ratio of 0.962 ± 0.059.
CAGATGGTTG gave a switch fluorescence ratio of 0.9835 ± 0.0041.
In the case of CATACACATT, the switch fluorescence ratio is reported as 1.06 ± 0.048.
GGTGTTCAGC was tested, and the switch fluorescence ratio was 0.981 ± 0.04.
GAGATTTATT was tested, and the switch fluorescence ratio was 0.985 ± 0.057.
Sequence TCGGATGGTT has a switch fluorescence ratio of 0.978 ± 0.024.
Sequence TTCTGCGCCC has a switch fluorescence ratio of 2.52 ± 2.
GGGGGTTGGG gave a switch fluorescence ratio of 1.01 ± 0.043.
ATGTGGGGTT showed a switch fluorescence ratio of 1.01 ± 0.014.
For CCACTTGAAA, the switch fluorescence ratio was 1 ± 0.018.
CGAATCGGTG gave a switch fluorescence ratio of 1.01 ± 0.019.
Sequence TTTTCGCTTA has a switch fluorescence ratio of 1.01 ± 0.03.
For CAATTGGGTG, the switch fluorescence ratio was 1.06 ± 0.022.
Sequence TTATGTACGT has a switch fluorescence ratio of 1.09 ± 0.021.
TAATCCAGAA gave a switch fluorescence ratio of 1.01 ± 0.082.
GACCTTGGTG gave a switch fluorescence ratio of 1.03 ± 0.083.
GGCAGTTTTG was tested, and the switch fluorescence ratio was 1.01 ± 0.0062.
With TTCAGGTTCT the switch fluorescence ratio was 1 ± 0.04.
In the case of GGTTTAGCG, the switch fluorescence ratio is reported as 1.014 ± 0.0025.
ATAGAATTGT gave a switch fluorescence ratio of 0.9803 ± 0.0091.
In the case of GCCAGGCCGA, the switch fluorescence ratio is reported as 0.979 ± 0.034.
CTGGGGTAAT showed a switch fluorescence ratio of 1.028 ± 0.0095.
TTCTAATGGT showed a switch fluorescence ratio of 1.01 ± 0.073.
AGGAGGGATA was tested, and the switch fluorescence ratio was 1.04 ± 0.015.
GAAACTTGGT showed a switch fluorescence ratio of 1.004 ± 0.0065.
For TTTCGGAAGC, the switch fluorescence ratio was 1.005 ± 0.0015.
GCAGGGGGAA was tested, and the switch fluorescence ratio was 1.08 ± 0.053.
TTCAGGTAAC was tested, and the switch fluorescence ratio was 1.054 ± 0.0022.
Sequence AATTGAGTGG has a switch fluorescence ratio of 1.009 ± 0.0077.
Sequence CCGTTGTAAG has a switch fluorescence ratio of 1.0184 ± 0.001.
In the case of CGTTTGAAAA, the switch fluorescence ratio is reported as 1.019 ± 0.0058.
AAACCATCCG gave a switch fluorescence ratio of 1.63 ± 0.064.
TGCAGGGTTT gave a switch fluorescence ratio of 0.9906 ± 0.0082.
CAAGCTTTTT was tested, and the switch fluorescence ratio was 0.979 ± 0.032.
In the case of TCTATATGGG, the switch fluorescence ratio is reported as 0.99 ± 0.011.
TTCGGCTGCA gave a switch fluorescence ratio of 1.08 ± 0.064.
Sequence GGGAAGAACT has a switch fluorescence ratio of 1.06 ± 0.014.
Work on TGGCTTGTTT yielded a switch fluorescence ratio of 0.99 ± 0.058.
Work on TTTGGAAGGG yielded a switch fluorescence ratio of 1 ± 0.026.
With GGTGAGTTAC the switch fluorescence ratio was 0.98 ± 0.013.
Sequence TCCTTTTTTT has a switch fluorescence ratio of 1.01 ± 0.033.
GAGGGGCGGT gave a switch fluorescence ratio of 1.02 ± 0.026.
Work on GTAATTGTAA yielded a switch fluorescence ratio of 0.984 ± 0.012.
GCAGGAGTGG gave a switch fluorescence ratio of 0.9929 ± 0.0088.
In the case of TTTTCTTGCC, the switch fluorescence ratio is reported as 1.09 ± 0.11.
For AGTTTTTACC, the switch fluorescence ratio was 1.01 ± 0.046.
CAAATGGGG was tested, and the switch fluorescence ratio was 0.9589 ± 0.006.
GTTTAAAGGT was tested, and the switch fluorescence ratio was 0.996 ± 0.024.
GCTACTTTGC gave a switch fluorescence ratio of 1.037 ± 0.0045.
With TGGCCCGGGG the switch fluorescence ratio was 0.988 ± 0.031.
For TTTGGGGTTA, the switch fluorescence ratio was 0.996 ± 0.034.
Sequence AAGTTGTGAC has a switch fluorescence ratio of 0.997 ± 0.028.
GTGTATATGG was tested, and the switch fluorescence ratio was 0.995 ± 0.017.
In the case of GGGGAGAGAT, the switch fluorescence ratio is reported as 0.999 ± 0.064.
Sequence TTGTGGAGCT has a switch fluorescence ratio of 0.999 ± 0.016.
GGAATTTTTT gave a switch fluorescence ratio of 0.9887 ± 0.0051.
For TATTCTAGTG, the switch fluorescence ratio was 1.013 ± 0.01.
GAAAAAAGGC showed a switch fluorescence ratio of 1.03 ± 0.032.
ATGGTATCT gave a switch fluorescence ratio of 1.08 ± 0.1.
With CCTAACTAAA the switch fluorescence ratio was 0.995 ± 0.028.
In the case of CCCAGTCAGA, the switch fluorescence ratio is reported as 1.033 ± 0.0078.
Work on TTGGGTGGGT yielded a switch fluorescence ratio of 1 ± 0.038.
With GGGTTGCTGG the switch fluorescence ratio was 1 ± 0.03.
Work on CTTTATGCGA yielded a switch fluorescence ratio of 1.033 ± 0.0093.
Sequence GGTAGGCGAA has a switch fluorescence ratio of 0.9775 ± 0.0013.
ACCAGCTTTT gave a switch fluorescence ratio of 1.04 ± 0.03.
Sequence GATTTCTGCT has a switch fluorescence ratio of 0.974 ± 0.021.
AGCGTCTGTG showed a switch fluorescence ratio of 0.962 ± 0.036.
Sequence TTTTGTGGCA has a switch fluorescence ratio of 0.987 ± 0.014.
ATTGTGGAGA gave a switch fluorescence ratio of 1.03 ± 0.032.
For CTTGCCGATT, the switch fluorescence ratio was 0.968 ± 0.029.
Work on GAAGCACCGG yielded a switch fluorescence ratio of 1.08 ± 0.026.
For GTTTCGCGA, the switch fluorescence ratio was 1.14 ± 0.041.
With GGTATTCGAA the switch fluorescence ratio was 1.054 ± 0.0022.
In the case of AGGGTAAATA, the switch fluorescence ratio is reported as 1.0193 ± 0.00016.
In the case of GTTAGGCCTG, the switch fluorescence ratio is reported as 0.969 ± 0.013.
